We go through 4 molecules from patent US20250340631A1 (HARBOUR BIOMED SHANGHAI, published 2025).

One assay concerns the target T1, human CLDN2 (human, UniProt P57739 1-230).
T1 construct: whole, on cells; also called hCLDN2
T1 sequence (looked up): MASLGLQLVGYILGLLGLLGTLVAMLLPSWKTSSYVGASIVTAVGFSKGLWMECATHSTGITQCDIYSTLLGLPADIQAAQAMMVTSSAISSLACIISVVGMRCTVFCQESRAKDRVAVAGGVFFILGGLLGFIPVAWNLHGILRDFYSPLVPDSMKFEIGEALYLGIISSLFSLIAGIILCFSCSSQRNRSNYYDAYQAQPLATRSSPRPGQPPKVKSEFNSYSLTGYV
In words: FACS on HEK293 cells transiently expressing human CLDN2.

Assay [1] deals with T2, human CD3 on Jurkat cells (human, UniProt P07766 23-207).
T2 construct: whole, on cells; on cells it stands in the whole CD3/TCR complex; also called CD3-expressing cells
In words: FACS on Jurkat cells.
Protocol: (§1) Antibodies were assayed for binding affinity by FACS. Test cells include HEK293/hCLDN18.2, HEK293/hCLDN18.1, NUGC4_D8 and Jurkat cells. […] The cell density was adjusted to 10⁶ cells/mL, and 50 μL of the cell suspension was added to each well of a 96-well plate. Antibodies were diluted to different concentrations with FACS buffer, and 50 μL of the antibody dilution was added to each well of the 96-well plate. After 2 h of incubation at 4° C., the plate was washed twice with FACS buffer. […] After 1 h of incubation at 4° C., the plate was washed twice with FACS buffer. The cells were resuspended in fixative solution, and then the fluorescence of the cells was monitored using an FACS instrument (ACEA NovoCyte).

A further assay addresses T3, Human CD32b (human, UniProt P31994 46-217, limits assumed).
T3 sequence (looked up): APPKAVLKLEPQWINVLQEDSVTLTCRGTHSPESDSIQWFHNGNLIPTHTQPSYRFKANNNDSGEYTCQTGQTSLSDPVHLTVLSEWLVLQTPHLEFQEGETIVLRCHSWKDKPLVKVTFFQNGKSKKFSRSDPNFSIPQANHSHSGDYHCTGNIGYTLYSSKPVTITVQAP
The assay can be described thus: BLI (Octet), antibody on FAB2G sensor. (In BLI a coated tip is dipped into the sample, and binding shifts an interference pattern.)

In the next assay the target is Human CD16a(F) (human, UniProt P08637 17-208). The assay can be described thus: BLI (Octet), antibody on FAB2G sensor.
For a further assay, the target named is T4, Human CD32a(H) (human, UniProt P12318 36-218, limits assumed).
T4 sequence (looked up): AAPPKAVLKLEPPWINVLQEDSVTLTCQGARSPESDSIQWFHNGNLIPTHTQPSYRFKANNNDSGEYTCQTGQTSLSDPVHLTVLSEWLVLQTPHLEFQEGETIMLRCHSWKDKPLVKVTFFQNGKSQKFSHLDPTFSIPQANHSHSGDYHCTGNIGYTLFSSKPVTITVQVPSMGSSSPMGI
In words: BLI (Octet), antibody on FAB2G sensor.

Another assay addresses Human FcRn (human, UniProt P55899 24-297; P61769 21-119). The assay can be described thus: BLI (Octet), antibody on FAB2G sensor, pH 6.0, 1:1 global fit; pH 6.0; 400-25 nM.
The next assay addresses T5, Human CD64 (human, UniProt P12314 16-288, limits assumed).
T5 construct: bought recombinant protein
In words: BLI (Octet), antibody on FAB2G sensor, 1:1 global fit.

In another assay the target is Human CD16a(V) (human, UniProt P08637 17-208). In words: BLI (Octet), antibody on FAB2G sensor, steady state fit.
In assay [2] the target is human CLDN18.2 (human). In words: cell-based or functional assay.
Assay [3] has as its target T6, human CLDN18.2 (human).
T6 construct: the HEK293 line was made with a GenScript plasmid; also called hCLDN18.2
In words: FACS on NUGC4_D8 cells.

The target in assay [4] is T2, human CD3 on Jurkat cells. The assay can be described thus: FACS on Jurkat cells (CD3).
Protocol: as §1

T2 sequence (P07766 23-207): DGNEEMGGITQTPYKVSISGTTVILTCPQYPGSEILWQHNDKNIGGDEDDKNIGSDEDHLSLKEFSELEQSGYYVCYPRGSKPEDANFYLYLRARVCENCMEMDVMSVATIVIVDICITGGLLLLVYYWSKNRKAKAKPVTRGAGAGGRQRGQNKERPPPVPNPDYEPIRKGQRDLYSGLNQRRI
Sequence of Human FcRn (P55899 24-297 limits assumed, chain 1 of 2): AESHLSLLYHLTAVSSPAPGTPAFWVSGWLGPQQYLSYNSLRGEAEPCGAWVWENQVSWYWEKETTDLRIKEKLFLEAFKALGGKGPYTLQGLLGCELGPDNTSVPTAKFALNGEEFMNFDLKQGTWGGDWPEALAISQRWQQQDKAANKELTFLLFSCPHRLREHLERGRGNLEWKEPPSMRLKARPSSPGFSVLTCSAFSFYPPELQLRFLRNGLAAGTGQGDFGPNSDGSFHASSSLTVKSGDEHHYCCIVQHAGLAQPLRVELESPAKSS
Sequence of Human FcRn (P61769 21-119 limits assumed, chain 2 of 2): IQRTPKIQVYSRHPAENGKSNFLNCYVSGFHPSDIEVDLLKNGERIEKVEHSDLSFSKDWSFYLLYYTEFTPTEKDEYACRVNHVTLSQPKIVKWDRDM
T5 sequence (P12314 16-288 limits assumed): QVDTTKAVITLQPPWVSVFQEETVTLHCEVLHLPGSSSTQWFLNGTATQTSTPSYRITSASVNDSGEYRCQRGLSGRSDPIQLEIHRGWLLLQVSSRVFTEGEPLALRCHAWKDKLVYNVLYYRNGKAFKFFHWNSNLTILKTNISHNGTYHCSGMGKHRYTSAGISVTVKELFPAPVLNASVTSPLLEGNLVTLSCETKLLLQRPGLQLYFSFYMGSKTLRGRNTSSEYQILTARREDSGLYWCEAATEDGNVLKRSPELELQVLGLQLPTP
Sequence of Human CD16a(V) (P08637 17-208 F176V limits assumed): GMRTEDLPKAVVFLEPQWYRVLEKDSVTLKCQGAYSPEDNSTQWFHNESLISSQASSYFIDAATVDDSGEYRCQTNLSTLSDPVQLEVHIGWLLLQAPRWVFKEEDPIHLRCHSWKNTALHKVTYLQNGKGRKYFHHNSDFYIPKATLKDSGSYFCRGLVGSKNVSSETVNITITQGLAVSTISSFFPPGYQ
Sequence of Human CD16a(F) (P08637 17-208 limits assumed): as the sequence (P08637 17-208 F176V limits assumed) above, with V160F counted along it
Protocol for Human CD16a(F): (§2) The binding kinetics between proteins and antibodies was analyzed by the Biolayer Interferometry (BLI) technique using an Octet Red 96e (Fortebio) system. The rotation speed was set at 1000 rpm for the system. […] After equilibrated in the buffer for 120 s, the FAB2G sensor was allowed to bind to 2-fold serially diluted human Fc receptor protein. Finally, the FAB2G sensor was immersed in a 10 mM glycine-hydrochloric acid solution at pH 1.5 for regeneration to elute the proteins bound to the sensor. The affinity assays of antibodies for FcRn were performed under the conditions of both pH 6.0 buffer and pH 7.4 buffer. […] For the interactions of fast binding and fast dissociation, the “steady state” method was selected to fit the data to obtain KD(M) values.
Protocol for Human CD16a(V): as §2
Protocol for Human CD32a(H): as §2
Protocol for Human CD32b: as §2
Protocol for Human CD64: as §2
Protocol for Human FcRn: as §2
Protocol for human CLDN2: Antibodies were assayed for binding affinity to human CLDN18.2 paralogous proteins by FACS (ACEA NovoCyte). CLDN1, CLDN2, CLDN3, CLDN4, CLDN6 and CLDN9 genes of the human CLDN18.2 paralogous family were transiently transfected into HEK293 cells. […] The cell density was adjusted to 10⁶ cells/mL, and 50 μL of the cell suspension was added to each well of a 96-well plate. An antibody was diluted to 60 nM with FACS buffer, and 50 μL of the antibody dilution was added to each well of the 96-well plate. After 2 h of incubation at 4° C., the plate was washed twice with FACS buffer. Then, an FACS buffer containing a secondary antibody was added. After 1 h of incubation at 4° C., the plate was washed twice with FACS buffer. The cells were resuspended in fixative solution, and run FACS.

B1: Positive Control (hCLDN2 row) (antibody, human IgG1, kappa, V domains shown)
VH: VKLLQSGAALVPKPGDSMKMSCKASGYTFTHDIIHWVRQSHGKSLEWIGYINPYNGGTNYNEKFKTKATMTVDKPSSTAYLELTRVSSEASAIYYCATGSFDYWGQGVMVTVSS
VL: DVVLTQTPGSLSLAIGQSASISCKSSQSLLGTSGKTFLNWILQRPGQSPERLIYQVSKLYSEVPDRFSGSGSETEFTLKISRVEAEDLGVYYCWQGIHFPHTFGAGTKLELKR
notes: The sheet prints only 'Positive Control'; also called PR005080; Human Claudin-2 Antibody (PR005080)
As to B1, in the assay with human CLDN2, the binding result is “binds”.

B2: PR006023 (bispecific antibody, human IgG1, lambda, L234A L235A)
chain: EVQLVESGGGLVQPGGSLRLSCAASGFTFSSYWMHWVRQVPGKGLVWVSRISSTGSRTIYADSVKGRFTISRDNAKNTLYLQMNSLRAEDTAVYYCARGEDHDILTGYPIRGQGTTVTVSSGGGGSGGGGSGGGGSEVQLVESGGGLVQPGGSLRLSCAASGFTFSSYWMHWVRQVPGKGLVWVSRISSTGSRTIYADSVKGRFTISRDNAKNTLYLQMNSLRAEDTAVYYCARGEDHDILTGYPIRGQGTTVTVSSASEPKSSDKTHTCPPCPAPEAAGGPSVFLFPPKPKDTLMISRTPEVTCVVVDVSHEDPEVKFNWYVDGVEVHNAKTKPREEQYNSTYRVVSVLTVLHQDWLNGKEYKCKVSNKALPAPIEKTISKAKGQPREPQVCTLPPSREEMTKNQVSLSCAVKGFYPSDIAVEWESNGQPENNYKTTPPVLDSDGSFFLVSKLTVDKSRWQQGNVFSCSVMHEALHNHYTQKSLSLSPGK
heavy: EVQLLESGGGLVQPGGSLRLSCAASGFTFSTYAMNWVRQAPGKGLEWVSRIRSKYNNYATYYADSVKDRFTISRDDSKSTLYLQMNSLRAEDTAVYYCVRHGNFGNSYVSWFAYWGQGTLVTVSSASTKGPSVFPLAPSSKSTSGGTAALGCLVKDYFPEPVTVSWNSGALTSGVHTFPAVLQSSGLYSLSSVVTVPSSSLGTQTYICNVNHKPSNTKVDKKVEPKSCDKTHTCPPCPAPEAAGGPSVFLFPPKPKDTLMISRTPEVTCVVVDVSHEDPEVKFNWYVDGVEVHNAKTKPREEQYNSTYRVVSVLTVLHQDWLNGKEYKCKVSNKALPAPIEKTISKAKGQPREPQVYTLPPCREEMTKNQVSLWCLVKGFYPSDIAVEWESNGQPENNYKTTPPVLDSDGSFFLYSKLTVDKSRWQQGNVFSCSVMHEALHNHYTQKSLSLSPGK
light: QAVVTQEPSLTVSPGGTVTLTCRSSTGAVTTSNYANWVQQKPGQAPRGLIGGTNKRAPWTPARFSGSLLGDKAALTLLGAQPEDEAEYFCALWYSNLWVFGGGTKLTVLGQPKAAPSVTLFPPSSEELQANKATLVCLISDFYPGAVTVAWKADSSPVKAGVETTTPSKQSNNKYAASSYLSLTPEQWKSHRSYSCQVTHEGSTVEKTVAPTECS
notes: structure 1; CD3 Fab from PR001848, CLDN18.2 VH from PR007246; LALA
One may read the EC50 as the concentration that produces a half-maximal response. Higher therefore signals a need for much substance. The term Kd denotes the free concentration of one partner at which half of the binding sites on the other are occupied at equilibrium, for simple one-to-one binding. One may read the koff as the first-order rate constant of dissociation. A higher koff goes with a short-lived complex. Broadly, the kon is the second-order rate constant of association. Higher therefore signals fast association. Take B2: the EC50 in assay [1] came to 40.6 nM; with human CLDN18.2 [3] it was 31.3 nM. Also, the binding result with Human CD32b, with Human CD16a(F) and with Human CD32a(H) was “no binding (tested: 10000-625 nM)” each time. Further, the Kd is 210 nM with Human FcRn, 53.9 nM in the assay with Human CD64 and 3000 nM in the assay with Human CD16a(V). For the same molecule, the values for the koff in the assay with Human FcRn and in the assay with Human CD64 were 0.0626 s⁻¹ and 0.0471 s⁻¹, respectively. For the same molecule, the figures for the on-rate (kon) with Human FcRn and with Human CD64 were 298000 M⁻¹ s⁻¹ and 874000 M⁻¹ s⁻¹, respectively. In addition, the “TDCC, Titer EC50 (pM), NUGC4_D8” value with human CLDN18.2 [2] turned out to be 48.5 pM.

B3: PR007081 (bispecific antibody, human IgG1, lambda)
chain: EVQLVESGGGLVQPGGSLRLSCAASGFTFSSYWMHWVRQVPGKGLVWVSRINFDSSRTIYADSVKGRFTISRDNAKNTLYLQMNSLRAEDTAVYYCARGEDHDILTGYPIRGQGTTVTVSSGGGGSGGGGSGGGGSEVQLVESGGGLVQPGGSLRLSCAASGFTFSSYWMHWVRQVPGKGLVWVSRINFDSSRTIYADSVKGRFTISRDNAKNTLYLQMNSLRAEDTAVYYCARGEDHDILTGYPIRGQGTTVTVSSASEPKSSDKTHTCPPCPAPEAAGAPSVFLFPPKPKDTLMISRTPEVTCVVVDVSHEDPEVKFNWYVDGVEVHNAKTKPREEQYNSTYRVVSVLTVLHQDWLNGKEYKCKVSNKALPAPIEKTISKAKGQPREPQVCTLPPSREEMTKNQVSLSCAVKGFYPSDIAVEWESNGQPENNYKTTPPVLDSDGSFFLVSKLTVDKSRWQQGNVFSCSVMHEALHNHYTQKSLSLSPGK
heavy: EVQLVESGGGLVQPGGSLKLSCAASGFTFSTYAMNWVRQASGKGLEWVGRIRSKYNNYATYYADSVKDRFTISRDDSKNTAYLQMNSLKTEDTAVYYCTRHGNFGNSYVSWFAYWGQGTLVTVSSASTKGPSVFPLAPSSKSTSGGTAALGCLVKDYFPEPVTVSWNSGALTSGVHTFPAVLQSSGLYSLSSVVTVPSSSLGTQTYICNVNHKPSNTKVDKKVEPKSCDKTHTCPPCPAPEAAGAPSVFLFPPKPKDTLMISRTPEVTCVVVDVSHEDPEVKFNWYVDGVEVHNAKTKPREEQYNSTYRVVSVLTVLHQDWLNGKEYKCKVSNKALPAPIEKTISKAKGQPREPQVYTLPPCREEMTKNQVSLWCLVKGFYPSDIAVEWESNGQPENNYKTTPPVLDSDGSFFLYSKLTVDKSRWQQGNVFSCSVMHEALHNHYTQKSLSLSPGK
light: QAVVTQEPSLTVSPGGTVTLTCRSSTGAVTTSNYANWVQQKPGQAPRGLIGGTNKRAPWTPARFSGSLLGDKAALTLLGAQPEDEAEYFCALWYSNLWVFGGGTKLTVLGQPKAAPSVTLFPPSSEELQANKATLVCLISDFYPGAVTVAWKADSSPVKAGVETTTPSKQSNNKYAASSYLSLTPEQWKSHRSYSCQVTHEGSTVEKTVAPTECS
notes: structure 1; CD3 Fab from PR003886, CLDN18.2 VH from PR007242; AAA
As to B3, the EC50 with human CLDN18.2 [3] stood at 49.3 nM. Moreover, the binding result in assay [4] is on record as “binds”.

B4: PR007080 (bispecific antibody, human IgG1, lambda)
chain: EVQLVESGGGLVQPGGSLRLSCAASGFTFSSYWMHWVRQVPGKGLVWVSRIDSRGSRTIYADSVKGRFTISRDNAKNTLYLQMNSLRAEDTAVYYCARGEDHDILTGYPIRGQGTTVTVSSGGGGSGGGGSGGGGSEVQLVESGGGLVQPGGSLRLSCAASGFTFSSYWMHWVRQVPGKGLVWVSRIDSRGSRTIYADSVKGRFTISRDNAKNTLYLQMNSLRAEDTAVYYCARGEDHDILTGYPIRGQGTTVTVSSASEPKSSDKTHTCPPCPAPEAAGAPSVFLFPPKPKDTLMISRTPEVTCVVVDVSHEDPEVKFNWYVDGVEVHNAKTKPREEQYNSTYRVVSVLTVLHQDWLNGKEYKCKVSNKALPAPIEKTISKAKGQPREPQVCTLPPSREEMTKNQVSLSCAVKGFYPSDIAVEWESNGQPENNYKTTPPVLDSDGSFFLVSKLTVDKSRWQQGNVFSCSVMHEALHNHYTQKSLSLSPGK
heavy: EVQLVESGGGLVQPGGSLKLSCAASGFTFSTYAMNWVRQASGKGLEWVGRIRSKYNNYATYYADSVKDRFTISRDDSKNTAYLQMNSLKTEDTAVYYCTRHGNFGNSYVSWFAYWGQGTLVTVSSASTKGPSVFPLAPSSKSTSGGTAALGCLVKDYFPEPVTVSWNSGALTSGVHTFPAVLQSSGLYSLSSVVTVPSSSLGTQTYICNVNHKPSNTKVDKKVEPKSCDKTHTCPPCPAPEAAGAPSVFLFPPKPKDTLMISRTPEVTCVVVDVSHEDPEVKFNWYVDGVEVHNAKTKPREEQYNSTYRVVSVLTVLHQDWLNGKEYKCKVSNKALPAPIEKTISKAKGQPREPQVYTLPPCREEMTKNQVSLWCLVKGFYPSDIAVEWESNGQPENNYKTTPPVLDSDGSFFLYSKLTVDKSRWQQGNVFSCSVMHEALHNHYTQKSLSLSPGK
light: QAVVTQEPSLTVSPGGTVTLTCRSSTGAVTTSNYANWVQQKPGQAPRGLIGGTNKRAPWTPARFSGSLLGDKAALTLLGAQPEDEAEYFCALWYSNLWVFGGGTKLTVLGQPKAAPSVTLFPPSSEELQANKATLVCLISDFYPGAVTVAWKADSSPVKAGVETTTPSKQSNNKYAASSYLSLTPEQWKSHRSYSCQVTHEGSTVEKTVAPTECS
notes: structure 1; CD3 Fab from PR003886, CLDN18.2 VH from PR007244; AAA
B4 had a concentration for a half-maximal effect (EC50) with human CLDN18.2 [3] of 46.7 nM. In addition, in assay [4], the binding result is “binds”.
